Laboratory results published in patent publication US20240181050A1 (COMPASS THERAPEUTICS, published 2024).
Numbering of substitutions follows the chain as printed.

T1: mouse CD137 (equilibrium cell-binding assay) (mouse, UniProt P20334 24-256)
T1 construct: whole, on cells; The cells are not described; also called mCD137
T1 sequence (looked up): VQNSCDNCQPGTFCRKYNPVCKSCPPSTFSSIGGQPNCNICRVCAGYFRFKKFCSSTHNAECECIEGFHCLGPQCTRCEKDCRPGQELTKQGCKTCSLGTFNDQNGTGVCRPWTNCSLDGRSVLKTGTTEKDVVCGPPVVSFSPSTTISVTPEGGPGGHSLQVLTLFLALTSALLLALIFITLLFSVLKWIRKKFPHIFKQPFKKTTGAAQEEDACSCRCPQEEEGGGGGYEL

T2: mouse CD137 (recombinant, ForteBio Octet) (mouse, UniProt P20334 24-187, limits assumed)
T2 construct: also called murine CD137
T2 sequence (looked up): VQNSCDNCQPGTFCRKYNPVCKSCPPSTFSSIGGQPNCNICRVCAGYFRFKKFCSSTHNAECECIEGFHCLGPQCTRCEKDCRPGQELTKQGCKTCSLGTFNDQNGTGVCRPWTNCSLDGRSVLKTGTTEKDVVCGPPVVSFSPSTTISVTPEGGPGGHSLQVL

T3: Fc-, mouse IgG2a-, or His-tagged mouse CD137 (mouse, UniProt P20334 24-187)
T3 construct: Antigens came from ACRO Biosystems, Sino Biological and internal sources; not shown: Fc, mouse IgG2a or His tag
T3 sequence (looked up): T2 sequence (looked up)

T4: Fc-, mouse IgG2a-, or His-tagged cynomolgus CD137 (cynomolgus, UniProt A9YYE7 24-186)
T4 construct: also called cyno CD137; not shown: Fc, mouse IgG2a or His tag
T4 sequence: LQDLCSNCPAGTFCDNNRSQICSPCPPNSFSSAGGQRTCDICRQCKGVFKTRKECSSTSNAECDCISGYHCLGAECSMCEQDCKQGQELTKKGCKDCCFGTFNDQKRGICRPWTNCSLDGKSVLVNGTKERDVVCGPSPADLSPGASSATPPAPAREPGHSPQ

B1: mAb1 wild type, reference of the CDRH3 alanine scan (antibody, V domains shown)
VH: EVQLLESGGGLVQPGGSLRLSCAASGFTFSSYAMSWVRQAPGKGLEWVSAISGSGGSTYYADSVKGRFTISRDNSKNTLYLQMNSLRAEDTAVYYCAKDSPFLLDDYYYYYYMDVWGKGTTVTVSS
VL: DIQMTQSPSSVSASVGDRVTITCRASQGISSWLAWYQQKPGKAPKLLIYAASSLQSGVPSRFSGSGSGTDFTLTISSLQPEDFATYYCQQGHLFPITFGGGTKVEIK
notes: The derivatives were cloned into an aglyco-IgG1 expression vector (DID-2600); also called WT KD
B2: mAb1 alanine-substituted derivative Y(100G)A (antibody, IgG1, V domains shown)
VH: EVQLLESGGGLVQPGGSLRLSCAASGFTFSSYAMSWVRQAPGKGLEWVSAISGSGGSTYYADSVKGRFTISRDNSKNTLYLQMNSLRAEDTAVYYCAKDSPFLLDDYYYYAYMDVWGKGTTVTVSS
VL: B1 VL
notes: aglyco-IgG1 vector (DID-2600)
B3: mAb1 alanine-substituted derivative D(100B)A (antibody, IgG1, V domains shown)
VH: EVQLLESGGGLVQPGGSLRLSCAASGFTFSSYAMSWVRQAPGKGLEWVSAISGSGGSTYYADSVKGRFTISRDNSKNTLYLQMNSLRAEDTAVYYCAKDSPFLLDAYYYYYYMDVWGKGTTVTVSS
VL: B1 VL
notes: aglyco-IgG1 vector (DID-2600)
B4: mAb1 alanine-substituted derivative D95A (antibody, V domains shown)
VH: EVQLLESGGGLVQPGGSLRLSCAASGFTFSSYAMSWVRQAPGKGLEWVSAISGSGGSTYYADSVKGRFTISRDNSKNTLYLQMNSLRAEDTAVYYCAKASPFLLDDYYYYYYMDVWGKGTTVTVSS
VL: B1 VL
notes: aglyco-IgG1 vector (DID-2600)
B5: mAb1 alanine-substituted derivative Y(100E)A (antibody, IgG1, V domains shown)
VH: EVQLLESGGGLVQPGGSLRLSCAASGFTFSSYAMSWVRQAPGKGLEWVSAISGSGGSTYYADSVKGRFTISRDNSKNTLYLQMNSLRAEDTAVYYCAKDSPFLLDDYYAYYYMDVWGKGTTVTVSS
VL: B1 VL
notes: aglyco-IgG1 vector (DID-2600)
B6: mAb1 alanine-substituted derivative Y(100C)A (antibody, IgG1, V domains shown)
VH: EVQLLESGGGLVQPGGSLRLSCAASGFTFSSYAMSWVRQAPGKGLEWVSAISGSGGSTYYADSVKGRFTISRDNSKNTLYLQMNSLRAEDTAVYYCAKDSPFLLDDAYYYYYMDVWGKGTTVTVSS
VL: B1 VL
notes: aglyco-IgG1 vector (DID-2600)
B7: mAb1 alanine-substituted derivative L100A (antibody, IgG1, V domains shown)
VH: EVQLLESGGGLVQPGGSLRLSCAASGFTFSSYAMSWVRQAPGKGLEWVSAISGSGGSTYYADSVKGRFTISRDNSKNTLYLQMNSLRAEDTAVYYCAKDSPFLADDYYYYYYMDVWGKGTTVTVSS
VL: B1 VL
notes: aglyco-IgG1 vector (DID-2600); Leucine at position 100 is changed to alanine
B8: mAb1 alanine-substituted derivative L99A (antibody, IgG1, V domains shown)
VH: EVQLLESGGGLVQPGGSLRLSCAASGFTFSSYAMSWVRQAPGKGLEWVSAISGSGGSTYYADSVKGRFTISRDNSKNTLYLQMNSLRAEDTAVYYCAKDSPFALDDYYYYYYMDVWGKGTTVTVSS
VL: B1 VL
notes: aglyco-IgG1 vector (DID-2600)
B9: mAb1 alanine-substituted derivative Y(100H)A (antibody, IgG1, V domains shown)
VH: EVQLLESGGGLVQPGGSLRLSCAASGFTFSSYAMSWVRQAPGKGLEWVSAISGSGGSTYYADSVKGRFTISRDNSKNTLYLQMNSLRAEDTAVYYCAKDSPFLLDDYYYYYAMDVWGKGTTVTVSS
VL: B1 VL
notes: aglyco-IgG1 vector (DID-2600)
B10: mAb1 alanine-substituted derivative S96A (antibody, IgG1, V domains shown)
VH: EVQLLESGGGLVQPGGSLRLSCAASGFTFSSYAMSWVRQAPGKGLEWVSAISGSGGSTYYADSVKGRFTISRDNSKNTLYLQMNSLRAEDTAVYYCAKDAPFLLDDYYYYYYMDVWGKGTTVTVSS
VL: B1 VL
notes: aglyco-IgG1 vector (DID-2600)
B11: mAb1 alanine-substituted derivative M(100I)A (antibody, IgG1, V domains shown)
VH: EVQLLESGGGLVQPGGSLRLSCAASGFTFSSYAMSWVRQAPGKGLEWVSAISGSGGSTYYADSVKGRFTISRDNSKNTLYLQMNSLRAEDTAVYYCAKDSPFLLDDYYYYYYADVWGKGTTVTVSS
VL: B1 VL
notes: aglyco-IgG1 vector (DID-2600)
B12: mAb1 alanine-substituted derivative Y(100D)A (antibody, IgG1, V domains shown)
VH: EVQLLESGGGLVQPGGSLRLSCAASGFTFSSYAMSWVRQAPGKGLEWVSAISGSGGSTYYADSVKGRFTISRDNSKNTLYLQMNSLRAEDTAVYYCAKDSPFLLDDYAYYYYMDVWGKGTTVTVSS
VL: B1 VL
notes: aglyco-IgG1 vector (DID-2600)
B13: mAb11 (antibody, IgG4, V domains shown)
VH: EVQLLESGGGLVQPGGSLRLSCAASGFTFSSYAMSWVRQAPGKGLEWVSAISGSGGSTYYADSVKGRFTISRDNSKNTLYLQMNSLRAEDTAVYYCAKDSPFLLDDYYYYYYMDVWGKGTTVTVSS
VL: DIQMTQSPSTLSASVGDRVTITCRASQNIHNWLAWYQQKPGKAPKLLIYKASGLESGVPSRFSGSGSGTEFTLTISSLQPDDFATYYCQQGDRFPLTFGGGTKVEIK
B14: anti-CD137 mAb8 (antibody, V domains shown)
VH: EVQLLESGGGLVQPGGSLRLSCAASGFTFRNYAMSWVRQAPGKGLEWVSAISGSGDTTYYADSVKGRFTISRDNSKNTLYLQMNSLRAEDTAVYYCAKDSPFLLDDYYYYYYMDVWGKGTTVTVSS
VL: B1 VL
notes: Generated with IgG4 constant regions
B15: mAb9 (antibody, IgG4, V domains shown)
VH: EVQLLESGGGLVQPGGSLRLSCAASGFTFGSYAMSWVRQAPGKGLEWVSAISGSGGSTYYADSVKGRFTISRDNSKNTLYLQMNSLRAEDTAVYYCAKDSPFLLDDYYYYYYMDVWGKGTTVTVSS
VL: B1 VL
B16: anti-CD137 mAb10 (antibody, IgG4, V domains shown)
VH: B14 VH with R30Y, N31G, S49A, T57S
VL: B1 VL
notes: as for B14
B17: mAb7 (antibody, IgG4, V domains shown)
VH: B14 VH with R30N, N31Y, S52D, T57N, Y59T
VL: B1 VL
B18: mAb12 (antibody, IgG4, V domains shown)
VH: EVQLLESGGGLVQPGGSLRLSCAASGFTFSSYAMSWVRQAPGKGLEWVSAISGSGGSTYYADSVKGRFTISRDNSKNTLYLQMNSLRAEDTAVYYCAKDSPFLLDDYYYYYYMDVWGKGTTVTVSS
VL: DIQLTQSPSSLSASVGDRVTITCRASQDIGDWLAWYQQKPGKAPKLLIYKASGLQSGVPSRFSGSGSGTEFTLTISNLQPEDFATYYCQQGNQFPLTFGQGTRLE
B19: mAb1 Fab (Fab, V domains shown)
VH: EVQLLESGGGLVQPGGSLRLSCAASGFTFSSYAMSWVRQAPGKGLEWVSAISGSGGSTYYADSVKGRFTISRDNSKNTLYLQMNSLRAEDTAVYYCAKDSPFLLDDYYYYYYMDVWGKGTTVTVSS
VL: B1 VL
B20: mAb8 Fab (Fab, V domains shown)
VH: B14 VH
VL: B1 VL
B21: mAb10 Fab (Fab, V domains shown)
VH: B14 VH with R30Y, N31G, S49A, T57S
VL: B1 VL

Target: T5, human CD137 (recombinant, construct not stated) (human, UniProt Q07011 24-186)
T5 construct: also called huCD137; 4-1BB
Test: Wasatch SPR kinetics, human CD137

| Kd | binding result | Binder |
| --- | --- | --- |
| 1 nM |  | B1 |
|  | no binding | B2 |
| 1.3 nM |  | B3 |
|  | no binding | B4 |
|  | no binding | B5 |
| 1 nM |  | B6 |
|  | no binding | B7 |
| 2.7 nM |  | B8 |
|  | no binding | B9 |
| 1.8 nM |  | B10 |
| 1.8 nM |  | B11 |

Target: T1, mouse CD137 (equilibrium cell-binding …)
Test: equilibrium cell-binding assay, mouse CD137

| Kd | binding result | Binder |
| --- | --- | --- |
| 11 nM |  | B1 |
|  | no binding | B2 |
| 54 nM |  | B3 |
|  | no binding | B4 |
| 170 nM |  | B12 |
|  | no binding | B5 |
| 25 nM |  | B6 |
|  | no binding | B7 |
| 33 nM |  | B8 |
|  | no binding | B9 |
| 40 nM |  | B10 |
| 21 nM |  | B11 |

Target: T2, mouse CD137 (recombinant, ForteBio …)
Test: ForteBio Octet (BLI) as described in Example 2
Description: Affinity of the CD137 antibodies was determined by measuring their kinetic constants (kₐ, kd, KD) on ForteBio Octet. ForteBio affinity measurements were performed generally as previously described (Estep et al., MAbs. 2013 5(2):270-8). Briefly, ForteBio affinity measurements were performed by loading antibodies (IgGs) on-line onto AHQ sensors. Sensors were equilibrated off-line in assay buffer for 30 minutes and then monitored on-line for 60 seconds for baseline establishment. For avid binding measurement, sensors with loaded IgGs were exposed to 100 nM antigen (human, cyno, or murine CD137) for 3 minutes, afterwards they were transferred to assay buffer for 3 minutes for off-rate measurement. Monovalent binding measurements were obtained by loading human CD137-Fc fusion on AHQ sensors followed by exposure to 200 nM antibody Fab in solution. Kinetics data were fit using a 1:1 binding model in the data analysis software provided by ForteBio (data not shown).

| Kd | Binder |
| --- | --- |
| 4.8 nM | B13 |
| 72 nM | B14 |
| 6.9 nM | B15 |
| 8.4 nM | B16 |
| 1.2 nM | B17 |
| 25.8 nM | B18 |

Target: T6, purified recombinant his tagged human CD137 (human, UniProt Q07011 24-186)
T6 construct: not shown: his tag
Test: Carterra MX96 SPRi; antibody printed on chip, his tagged human CD137 injected
Description: The resulting anti-CD137 antibodies from different selection rounds were plotted on kd/kₐ double log plots. Apparent association and dissociation kinetic rate constants (kₐ and kd values) were determined on an SPRi reader (MX96, Carterra) in a running buffer of PBS-T 0.01%. Anti-human CD137 antibodies were covalently printed on a Carboxymethyldextran hydrogel 50 L chip (Xantec bioanalytics) on a CFM (Carterra). Freshly mixed activating reagents (150 […] 0.1 M sulfo-NHS in H2O) were used to activate the surface of the SPR substrate for 7 minutes. Antibodies at 10 mg/ml in acetic acid buffer pH 4.5 were used for printing for 15 minutes. The printed chip was then quenched on SPRi reader (MX96, Carterra) with 1 M ethanolamine for 15 minutes. For kinetics analysis, purified recombinant his tagged human CD137 (0, 2.05, 5.12, 12.8, 32, 80, 200, 500 nM) was injected sequentially. For each concentration, there was 5 minutes of association followed by 10 minutes of dissociation. Data were processed and analyzed in SPR Inspection Tool and Scrubber softwares. The kinetic data were referenced with the interstitial reference spots and double-referenced to a buffer cycle, and then fit globally to a 1:1 binding model to determine their apparent association and dissociation kinetic rate constants (kₐ and kd values). The ratio kd/kₐ was used to derive the KD value of each antigen/mAb interaction, i.e. KD=kd/kₐ.

| Kd | Binder |
| --- | --- |
| 4.1 nM | B13 |
| 3.2 nM | B14 |
| 41.4 nM | B15 |
| 20 nM | B16 |
| 6.8 nM | B17 |
| 12.1 nM | B18 |

Target: T7, Fc-, mouse IgG2a-, or His-tagged human CD137 (human, UniProt Q07011 24-186)
T7 construct: Antigens came from ACRO Biosystems, Sino Biological and internal sources; not shown: Fc, mouse IgG2a or His tag
Test: BLI Octet HTX; tagged CD137 on biosensor, Fab 0-500 nM in solution; global 1:1 fit, apparent KD
Description: (§1) The anti-CD137 antibodies were further tested for their binding to CD137 from multiple species. Specifically, mAb1, mAb8 and mAb10 were analyzed for binding to human, mouse, cynomolgus and canine CD137. Kinetic experiments were performed on Octet HTX (ForteBio) in kinetics buffer (1×PBS, pH 7.4, 0.1 mg/ml BSA, and 0.002% Tween 20). Fc-, mouse IgG2a-, or His-tagged CD137 (human, mouse, cyno or canine) were loaded for 5 minutes on pre-hydrated biosensors, AHC, AMC or NTA respectively. The sensors were then dipped into Fabs (0, 5.12, 12.8, 32, 80, 200 and 500 nM) for 5 minutes of association, following by 15 minutes of dissociation. Results were analyzed with ForteBio Data Analysis 9.0 and fit globally to a 1:1 binding model to determine the apparent KD. KD for human and mouse CD137 binding were confirmed by using antigens from different sources (ACRO Biosystems, Sino Biological and internal).

| Kd | Binder |
| --- | --- |
| 50 to 70 nM | B19 |
| 3 to 5 nM | B20 |
| 0.9 nM | B21 |

Target: T3, Fc-, mouse IgG2a-, or His-tagged mouse …
Test: as above
Description: as §1

| Kd | Binder |
| --- | --- |
| 300 to 500 nM | B19 |
| 50 to 90 nM | B20 |
| 10 to 30 nM | B21 |

Target: T4, Fc-, mouse IgG2a-, or His-tagged …
Test: as above
Description: as §1

| Kd | Binder |
| --- | --- |
| 30 to 100 nM | B19 |
| 3 to 7 nM | B20 |
| 1.8 nM | B21 |
